Holding throughout (test): split reporter
Test [1] concerns the target zipped β1–10 of ZipGFP with TEV cleavage sequence (E5-β1–10-K5), cleaved by co-expressed TEV protease.
The target in test [2] is zipped β1–10 of the ZipGFP caspase reporter (E5-β1–10-K5 with DEVD), cleaved upon apoptosis.
For test [3], the target named is β1–10 part of ZipGFP with TEV cleavage sequence (E5-β1–10-K5), cleaved by TEV protease, purified.

Results on three substances are retold here after publication PMC5026494.

Consider “zipped β11 of ZipGFP with TEV cleavage sequence (K5-β11-E5), cleaved by co-expressed TEV protease”, for which, in test [1], the fold increase of green fluorescence over the uncleaved reporter worked out at 10 fold.
As for “zipped β11 of the ZipGFP caspase reporter (K5-β11-E5 with DEVD), cleaved upon apoptosis”, the fold increase of green fluorescence (normalized to mCherry) upon apoptosis in test [2] is 5 to 10 fold.
As for “β11 part of ZipGFP with TEV cleavage sequence (K5-β11-E5), cleaved by TEV protease, purified”, in test [3], the time to half-maximal fluorescence (T1/2) after mixing turned out to be 40 min.
